What was measured:
MS2 coat protein [1] = assay: apparent KD of MS2 coat protein, switch ON state; designed switch direction (-1 OFF switch, 1 ON switch): -1; higher = weaker reporter binding; conditions: FMN input: 0 or 200 uM; Eterna round: R93 (includes R88 designs)
Outline: (§1)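 Apparent KD stands for the median, per design, of fits to normalised cluster binding curves. The curves came from titrating on-chip-transcribed RNA switches on Illumina sequencing clusters with SNAP-549-labelled MS2 coat protein, twofold from 0.7 or 1.5 nM to 3 µM. Buffer was 100 mM Tris-HCl pH 7.5, 80 mM KCl, 4 mM MgCl2, without or with constant ligand.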

MS2 coat protein [2] = assay: apparent KD of MS2 coat protein, switch OFF state (with FMN for OFF switches, without FMN for ON switches); designed switch direction (-1 OFF switch, 1 ON switch): -1; higher = weaker reporter binding; conditions: FMN input: 0 or 200 uM; Eterna round: R93 (includes R88 designs)
Outline: as §1

Sequence	apparent KD of MS2 coat protein (MS2 coat protein [1]) [nM]	apparent KD of MS2 coat protein (MS2 coat protein [2]) [nM]
AGCUAGUCAGGAUAUACGAAAAUGAUAGAAGACGUAAGGGAACAUGAGGAUCACCCAUGUAGAAGGGACUAGCA [Diamond 47]	24.7	63.1
AGCUAGUCAGGAUAUACGAAAAUGUAAAAAGAAGUGAAGGGACAUGAGGAUCACCCAUGUAGAAGGGACUAGAA [74%, Web mod - With 4 less C's]	58	116
AGCUAGUCAGGAUAUACGAAAAUGUCAGAAGACGUAAGGGAACAUGAGGAUCACCCAUGUAGAAGGGACUAGCA [Diamond 41]	30.7	108
AGCUAGUCAGGAUAUACGAACAAGUCAAAAGACGAGAACGGACAUGAGGAUCACCCAUGUAGAAGGGACUAGCA [Diamond 7]	16.1	13.6
AGCUAGUCAGGAUAUACGAACAUGUCAGGAGACGUGAAGGGACAUGAGGAUCACCCAUGUAGAAGGGACUAGCG [74%, Web mod - With 3 more G's]	37.2	128
AGCUAGUCAGGAUAUACGAACAUGUCGAAAGACGUGAAGGGACAUGAGGAUCACCCAUGUAGAAGGGACUAGCA [Mat - Exclusion 2 - JL mod - D1]	34.2	120
AGGAAACAUGAGGAUCACCCAUGUGAGGAUAUAGGAAAGAAAAGAAAAGAAAGAAGAAUUAGAAGGCACAAGAA [Djet]	20.5	14.9
AGGAAACAUGAGGAUCACCCAUGUGAGGAUAUGAACGAAAAUAAAUAAAAAUAAAAGUUCAGAAGGUACAAAAA [66%, Wbt, 5]	23.6	36.8
AGGAAACAUGAGGAUCACCCAUGUGAGGAUAUUCAAAAGAAAAGAAAAGAAAGAAGAAGAAGAAGGCACAAGAA [Khayu]	32.8	33.5
AGGAAACAUGAGGAUCACCCAUGUGAGGAUAUUGAAAAGAAAAGAAAAGAAAGAAGAACAAGAAGGCACAAGAA [Tiu]	29.6	31.5
AGGAAACAUGAGGAUCACCCAUGUUAGGAUAUGAACGAAAUAAAAUAAAAAUAAAAGUUCAGAAGGGACAAAAA [Mat - Exclusion 1 - Eli mod - D20]	24.9	49.6
AGGGUACAUGAGGAUCACCCAUGUUAGGAUAUUGAAAAGAAAAGAAAAGAAAGAAGAACAAGAAGGGACAAGAA [Userkare]	56.5	45.7
AGUAAACAUGAGGAUCACCCAUGUGAGGAUAUCGAAAAGAAAAGAAAAGAAAGAAGAAUGAGAAGGCACAAGAA [Huni]	33.3	37
AGUAACCAAGGAUAUACAAAACCUGUGAUCGAAUGGAUUUUACAUGAGGAUCACCCAUGUAGAAGGUGGAAAGG [Xeedce]	22.7	35
AGUAGAUCAGGAUAUACAUAAAUGAUAAUUAUGUAACUUUUACAUGAGGAUCACCCAUGUAGAAGGGAUCUACA [Ex2 Design 130: Not so Super Stable 18]	14.8	15.8
AGUAGUACAGGAUAUACAUGAGGAUCACCCAUGUGAAAAAUAAGUGGCGUACCACAAAGUAGAAGGGUACUACA [Mat - Exclusion 3 - JL mod - D37]	29.9	141
AGUAUGCGAGGAUAUACAUGAGGAUCACCCAUGUGAGAGAUAAAAGUGAGAAAGACAUGUAGAAGGCGCGUACA [JL Lego Mod 24]	38.9	27
AGUCAUACAGGAUAUACAUGAGGAUCACCCAUGUAAAUCCUAAAAAAAUGAUCCUCAUGUAGAAGGGUAUGACA [EX3 221: Super Stable 21]	16.8	14.4
AGUCAUACAGGAUAUACAUGAGGAUCACCCAUGUAUAUCCAAAAAAAAAAAUCCUCAUGUAGAAGGGUAUGACA [EX3 205: Super Stable 5]	17.1	18.7
AGUCGGCGAGGAUAUACAUGAGGAUCACCCAUGUGAGAGAAUAUAGUGAGUUAGACAAGUAGAAGGCGCUGACA [JL Lego Mod 11]	43.2	135

Sequence	apparent KD of MS2 coat protein (MS2 coat protein [1]) [nM]	apparent KD of MS2 coat protein (MS2 coat protein [2]) [nM]
AGUCGGCGAGGAUAUACAUGAGGAUCACCCAUGUGAGAGCUAAAAGUGAGUCAGAAAAGUAGAAGGCGCUGACA [JL Lego Mod 6]	96.5	94.1
AGUGAGUCAGGAUAUGACUGAAGAAUAAAAGAAAUAACAAGUCAGAAGGGACAUGAGGAUCACCCAUGUACACA [May 59]	30.9	20.7
AGUGAGUGAGGAUAUGAGUGAACAACAAAACAAAUAACGACUCAGAAGGCACAUGAGGAUCACCCAUGUACACA [May 68]	24	22.3
AGUUAGUCAGGAUAUGCGUGAAGAAUAAAAGAAAUAACAACGCAGAAGGGACAUGAGGAUCACCCAUGUAAACA [May 55]	34.2	37.3
AGUUGGCGAGGAUAUACAUGAGGAUCACCCAUGUGAAAAAAGGGCUCGAAAGAGAAAAGUAGAAGGCGCUGACA [73%, Moding Norbert Elias, 7]	24.8	98.4
AGUUGGCGAGGAUAUACAUGAGGAUCACCCAUGUGAAAUCGCGAAAAAAUAGGGAAAAGUAGAAGGCGCUGACA [73%, Moding Norbert Elias, 18]	11	21
AGUUGGCGAGGAUAUACAUGAGGAUCACCCAUGUGAGAGAUAAAAGUGAGAAAGAAAAGUAGAAGGCGCUAACA [JL Lego Mod 20]	45.6	262
AGUUGGCGAGGAUAUACAUGAGGAUCACCCAUGUGAGAGUAAAAAGUGAGAAAGAGAAGUAGAAGGCGCUAACA [Ruby 53]	37.4	167
AUAAGUCGAGGAUAUACGAAAUGCUAGCGAAAGCUAGCAUAACAUGAGGAUCACCCAUGUAGAAGGCGACAAUA [Tetraloop hairpin BlockHead... 61% 3]	22.9	20.6
AUAGGGCUAGGAUAUACAUGAGGAUCACCCAUGUAAACAGAUAGAUCAAGGUAAACGAGUAGAAGGAGCAAUAA [JR_Exc003_Sub210]	19.5	18.8
AUAGUACAUGAGGAUCACCCAUGUCAGGAUAUUCGAAAUGAAAAAAAAAAAAAGUGAAGGAGAAGGGACUAUAA [EX1 Malc#12]	21.5	20.1
AUAGUACAUGAGGAUCACCCAUGUCAGGAUAUUCGAUAUGAAAAAAAAAAAAAGUUAAGGAGAAGGGACUAUAA [EX1 Malc#13]	26.1	26.1
AUAGUACAUGAGGAUCACCCAUGUCAGGAUAUUGGAUAUGACAAAAAAAAAAAGUUAACGAGAAGGGACUAUAA [EX1 Malc#15]	31.2	36.6
AUCAACCUAGGAUAUACAUGAGGAUCACCCAUGUACAGAUACAACAAGGGAAACACACGUAGAAGGAGGAAGAU [JR_Exc003_Sub1205]	24.4	52.1
AUCAUGUAAGGAUAUACAAGAAAAGAAAAGAAAGAAAAGAAGUAGAAGGUACAUGAGGAUCACCCAUGUAAGAA [EteRNA is fun!]	61	31.5
AUCAUGUAAGGAUAUAUAAGAAAAGAAAAGAAAGAAAAGAAAUAGAAGGUACAUGAGGAUCACCCAUGUAAGAA [EteRNA is fun!]	30.8	15.6
AUCAUGUAAGGAUAUGACUACAUAAAAAAAAAAAAAUGUAGUCAGAAGGUACAUGAGGAUCACCCAUGUACAAA [Mod of Brourd]	27.6	29.4
AUCUCGUCAGGAUAUGACUACAUAAAAAAAAAAAAAUGUAGUCAGAAGGGACAUGAGGAUCACCCAUGUACCAA [HSL_Exclusion 4 64% 3]	21.9	22.8
AUCUUGUCAGGAUAUGACUACAUAAAAAAAAAAAAAUGUAGUCAGAAGGGACAUGAGGAUCACCCAUGUACUAA [hsl_exclusion4]	41.9	62.4
AUGGUAGGAGGAUAUACAUAGAUACAGAUACAUGUAGACGUACAUGAGGAUCACCCAUGUAGAAGGCCUAUAAA [Mat - Same state - Mayanna Mod - D150]	97.9	82.3

Reference: the supplement of paper PMC9170038
